Test results as given in patent US20200270325A1 (Merck Sharp & Dohme, published 2020).
Numbered stars: 1 amine (or outer) side, 2 acyl side, 3 side chain; on linkers, the order of the positions; unused ones are H or OH. Square brackets hold non-standard residues; d marks the D form. Side chains are listed from the residue outwards. Ends that are not written are not given here. * marks the point of attachment. Phe(4-CH2NH2) = NCc1ccc(C[C@H](N)C(=O)O)cc1; C18 diacid = O=C(O)CCCCCCCCCCCCCCCCC(=O)*; C16 diacid = O=C(O)CCCCCCCCCCCCCCC(=O)*; γGlu = O=C(O)[C@H](CCC(=O)[*:2])N[*:1]; Met(O2) = CS(=O)(=O)CC[C@H](N)C(=O)O; αMeD = C[C@](N)(CC(=O)O)C(=O)O; AEEA = NCCOCCOCC(=O)O; Aib = CC(C)(N)C(=O)O

B1: TP827 (peptide)
peptide: H[Aib]QGTFTSDYSKYLDARAAQK([AEEA-AEEA-γGlu-C16 diacid])FVQWL[Met(O2)][γGlu]T-NH2
modifications: N-terminus assumed
SMILES: CC(C)C[C@H](NC(=O)[C@H](Cc1ccc(O)cc1)NC(=O)[C@H](CCCCN)NC(=O)[C@H](CO)NC(=O)[C@H](Cc1ccc(O)cc1)NC(=O)[C@H](CC(=O)O)NC(=O)[C@H](CO)NC(=O)[C@@H](NC(=O)[C@H](Cc1ccccc1)NC(=O)[C@@H](NC(=O)CNC(=O)[C@H](CCC(N)=O)NC(=O)C(C)(C)NC(=O)[C@@H](N)Cc1c[nH]cn1)[C@@H](C)O)[C@@H](C)O)C(=O)N[C@@H](CC(=O)O)C(=O)N[C@@H](C)C(=O)N[C@@H](CCCNC(=N)N)C(=O)N[C@@H](C)C(=O)N[C@@H](C)C(=O)N[C@@H](CCC(N)=O)C(=O)N[C@@H](CCCCNC(=O)COCCOCCNC(=O)COCCOCCNC(=O)CC[C@H](NC(=O)CCCCCCCCCCCCCCC(=O)O)C(=O)O)C(=O)N[C@@H](Cc1ccccc1)C(=O)N[C@H](C(=O)N[C@@H](CCC(N)=O)C(=O)N[C@@H](Cc1c[nH]c2ccccc12)C(=O)N[C@@H](CC(C)C)C(=O)N[C@@H](CCS(C)(=O)=O)C(=O)N[C@@H](CCC(=O)N[C@H](C(N)=O)[C@@H](C)O)C(=O)O)C(C)C
B2: TP589 (peptide)
peptide: H[Aib]QGTFTSDYSKYLDERAAK([AEEA-AEEA-γGlu-C20‑OH])DFVQWL[Met(O2)][αMeD]T-NH2
B3: TP598 (peptide)
peptide: H[Aib]QGTFTSDYSKYLDAKAAK([AEEA-AEEA-γGlu-C18 diacid])DFVQWL[Met(O2)]DT-NH2
modifications: N-terminus assumed
SMILES: CC(C)C[C@H](NC(=O)[C@H](Cc1ccc(O)cc1)NC(=O)[C@H](CCCCN)NC(=O)[C@H](CO)NC(=O)[C@H](Cc1ccc(O)cc1)NC(=O)[C@H](CC(=O)O)NC(=O)[C@H](CO)NC(=O)[C@@H](NC(=O)[C@H](Cc1ccccc1)NC(=O)[C@@H](NC(=O)CNC(=O)[C@H](CCC(N)=O)NC(=O)C(C)(C)NC(=O)[C@@H](N)Cc1c[nH]cn1)[C@@H](C)O)[C@@H](C)O)C(=O)N[C@@H](CC(=O)O)C(=O)N[C@@H](C)C(=O)N[C@@H](CCCCN)C(=O)N[C@@H](C)C(=O)N[C@@H](C)C(=O)N[C@@H](CCCCNC(=O)COCCOCCNC(=O)COCCOCCNC(=O)CC[C@H](NC(=O)CCCCCCCCCCCCCCCCC(=O)O)C(=O)O)C(=O)N[C@@H](CC(=O)O)C(=O)N[C@@H](Cc1ccccc1)C(=O)N[C@H](C(=O)N[C@@H](CCC(N)=O)C(=O)N[C@@H](Cc1c[nH]c2ccccc12)C(=O)N[C@@H](CC(C)C)C(=O)N[C@@H](CCS(C)(=O)=O)C(=O)N[C@@H](CC(=O)O)C(=O)N[C@H](C(N)=O)[C@@H](C)O)C(C)C
B4: TP828 (peptide)
peptide: H[Aib]QGTFTSDYSKYLD[Aib]RAAQDFVK([AEEA-AEEA-γGlu-C16 diacid])WL[Met(O2)][γGlu]T-NH2
modifications: N-terminus assumed
SMILES: CC(C)C[C@H](NC(=O)[C@H](Cc1c[nH]c2ccccc12)NC(=O)[C@H](CCCCNC(=O)COCCOCCNC(=O)COCCOCCNC(=O)CC[C@H](NC(=O)CCCCCCCCCCCCCCC(=O)O)C(=O)O)NC(=O)[C@@H](NC(=O)[C@H](Cc1ccccc1)NC(=O)[C@H](CC(=O)O)NC(=O)[C@H](CCC(N)=O)NC(=O)[C@H](C)NC(=O)[C@H](C)NC(=O)[C@H](CCCNC(=N)N)NC(=O)C(C)(C)NC(=O)[C@H](CC(=O)O)NC(=O)[C@H](CC(C)C)NC(=O)[C@H](Cc1ccc(O)cc1)NC(=O)[C@H](CCCCN)NC(=O)[C@H](CO)NC(=O)[C@H](Cc1ccc(O)cc1)NC(=O)[C@H](CC(=O)O)NC(=O)[C@H](CO)NC(=O)[C@@H](NC(=O)[C@H](Cc1ccccc1)NC(=O)[C@@H](NC(=O)CNC(=O)[C@H](CCC(N)=O)NC(=O)C(C)(C)NC(=O)[C@@H](N)Cc1c[nH]cn1)[C@@H](C)O)[C@@H](C)O)C(C)C)C(=O)N[C@@H](CCS(C)(=O)=O)C(=O)N[C@@H](CCC(=O)N[C@H](C(N)=O)[C@@H](C)O)C(=O)O
B5: TP604 (peptide)
peptide: H[Aib]QGTFTSDYSKYLDARAAQDFVQWL[Met(O2)][Phe(4-CH2NH2)]([AEEA-AEEA-γGlu-C18 diacid])T-NH2
modifications: N-terminus assumed
SMILES: CC(C)C[C@H](NC(=O)[C@H](Cc1ccc(O)cc1)NC(=O)[C@H](CCCCN)NC(=O)[C@H](CO)NC(=O)[C@H](Cc1ccc(O)cc1)NC(=O)[C@H](CC(=O)O)NC(=O)[C@H](CO)NC(=O)[C@@H](NC(=O)[C@H](Cc1ccccc1)NC(=O)[C@@H](NC(=O)CNC(=O)[C@H](CCC(N)=O)NC(=O)C(C)(C)NC(=O)[C@@H](N)Cc1c[nH]cn1)[C@@H](C)O)[C@@H](C)O)C(=O)N[C@@H](CC(=O)O)C(=O)N[C@@H](C)C(=O)N[C@@H](CCCNC(=N)N)C(=O)N[C@@H](C)C(=O)N[C@@H](C)C(=O)N[C@@H](CCC(N)=O)C(=O)N[C@@H](CC(=O)O)C(=O)N[C@@H](Cc1ccccc1)C(=O)N[C@H](C(=O)N[C@@H](CCC(N)=O)C(=O)N[C@@H](Cc1c[nH]c2ccccc12)C(=O)N[C@@H](CC(C)C)C(=O)N[C@@H](CCS(C)(=O)=O)C(=O)N[C@@H](Cc1ccc(CNC(=O)COCCOCCNC(=O)COCCOCCNC(=O)CC[C@H](NC(=O)CCCCCCCCCCCCCCCCC(=O)O)C(=O)O)cc1)C(=O)N[C@H](C(N)=O)[C@@H](C)O)C(C)C
B6: TP564 (peptide)
peptide: H[Aib]QGTFTSDYSKYLD[Aib]RAAK([AEEA-AEEA-γGlu-C20‑OH])DFVQWL[Met(O2)]DT-NH2
B7: TP608 (peptide)
peptide: HXQGTFTSDYSKYLDARAAQXFVQWLXXT
modifications: Aib (U) at 2; K(PEG5-γEC18-OH) at 21; L-methionine sulphone (2) at 27; αMD (printed aMD) at 28; C-terminal amide
B8: TP575 (peptide)
peptide: H[Aib]QGTFTSDYSKYLD[Aib]RAAQDFVK([AEEA-AEEA-γGlu-C18 diacid])WL[Met(O2)]DT-NH2
modifications: N-terminus assumed
SMILES: CC(C)C[C@H](NC(=O)[C@H](Cc1c[nH]c2ccccc12)NC(=O)[C@H](CCCCNC(=O)COCCOCCNC(=O)COCCOCCNC(=O)CC[C@H](NC(=O)CCCCCCCCCCCCCCCCC(=O)O)C(=O)O)NC(=O)[C@@H](NC(=O)[C@H](Cc1ccccc1)NC(=O)[C@H](CC(=O)O)NC(=O)[C@H](CCC(N)=O)NC(=O)[C@H](C)NC(=O)[C@H](C)NC(=O)[C@H](CCCNC(=N)N)NC(=O)C(C)(C)NC(=O)[C@H](CC(=O)O)NC(=O)[C@H](CC(C)C)NC(=O)[C@H](Cc1ccc(O)cc1)NC(=O)[C@H](CCCCN)NC(=O)[C@H](CO)NC(=O)[C@H](Cc1ccc(O)cc1)NC(=O)[C@H](CC(=O)O)NC(=O)[C@H](CO)NC(=O)[C@@H](NC(=O)[C@H](Cc1ccccc1)NC(=O)[C@@H](NC(=O)CNC(=O)[C@H](CCC(N)=O)NC(=O)C(C)(C)NC(=O)[C@@H](N)Cc1c[nH]cn1)[C@@H](C)O)[C@@H](C)O)C(C)C)C(=O)N[C@@H](CCS(C)(=O)=O)C(=O)N[C@@H](CC(=O)O)C(=O)N[C@H](C(N)=O)[C@@H](C)O
B9: TP597 (peptide)
peptide: H[Aib]QGTFTSDYSKLLDARAAK([AEEA-AEEA-γGlu-C18 diacid])DFVQWL[Met(O2)]DT-NH2
modifications: N-terminus assumed
SMILES: CC(C)C[C@H](NC(=O)[C@H](CC(C)C)NC(=O)[C@H](CCCCN)NC(=O)[C@H](CO)NC(=O)[C@H](Cc1ccc(O)cc1)NC(=O)[C@H](CC(=O)O)NC(=O)[C@H](CO)NC(=O)[C@@H](NC(=O)[C@H](Cc1ccccc1)NC(=O)[C@@H](NC(=O)CNC(=O)[C@H](CCC(N)=O)NC(=O)C(C)(C)NC(=O)[C@@H](N)Cc1c[nH]cn1)[C@@H](C)O)[C@@H](C)O)C(=O)N[C@@H](CC(=O)O)C(=O)N[C@@H](C)C(=O)N[C@@H](CCCNC(=N)N)C(=O)N[C@@H](C)C(=O)N[C@@H](C)C(=O)N[C@@H](CCCCNC(=O)COCCOCCNC(=O)COCCOCCNC(=O)CC[C@H](NC(=O)CCCCCCCCCCCCCCCCC(=O)O)C(=O)O)C(=O)N[C@@H](CC(=O)O)C(=O)N[C@@H](Cc1ccccc1)C(=O)N[C@H](C(=O)N[C@@H](CCC(N)=O)C(=O)N[C@@H](Cc1c[nH]c2ccccc12)C(=O)N[C@@H](CC(C)C)C(=O)N[C@@H](CCS(C)(=O)=O)C(=O)N[C@@H](CC(=O)O)C(=O)N[C@H](C(N)=O)[C@@H](C)O)C(C)C
B10: TP443 (peptide)
peptide: H[Aib]QGTFTSDYSKYLDARAAQ[Phe(4-CH2NH2)]([AEEA-AEEA-γGlu-C18 diacid])FVQWLLDT-NH2
modifications: N-terminus assumed
SMILES: CC(C)C[C@H](NC(=O)[C@H](Cc1ccc(O)cc1)NC(=O)[C@H](CCCCN)NC(=O)[C@H](CO)NC(=O)[C@H](Cc1ccc(O)cc1)NC(=O)[C@H](CC(=O)O)NC(=O)[C@H](CO)NC(=O)[C@@H](NC(=O)[C@H](Cc1ccccc1)NC(=O)[C@@H](NC(=O)CNC(=O)[C@H](CCC(N)=O)NC(=O)C(C)(C)NC(=O)[C@@H](N)Cc1c[nH]cn1)[C@@H](C)O)[C@@H](C)O)C(=O)N[C@@H](CC(=O)O)C(=O)N[C@@H](C)C(=O)N[C@@H](CCCNC(=N)N)C(=O)N[C@@H](C)C(=O)N[C@@H](C)C(=O)N[C@@H](CCC(N)=O)C(=O)N[C@@H](Cc1ccc(CNC(=O)COCCOCCNC(=O)COCCOCCNC(=O)CC[C@H](NC(=O)CCCCCCCCCCCCCCCCC(=O)O)C(=O)O)cc1)C(=O)N[C@@H](Cc1ccccc1)C(=O)N[C@H](C(=O)N[C@@H](CCC(N)=O)C(=O)N[C@@H](Cc1c[nH]c2ccccc12)C(=O)N[C@@H](CC(C)C)C(=O)N[C@@H](CC(C)C)C(=O)N[C@@H](CC(=O)O)C(=O)N[C@H](C(N)=O)[C@@H](C)O)C(C)C

What follows are binders tested against human GLP-1 receptor (GLP1R) (human, UniProt P43220 24-463) (assay: cell-based or functional assay).

Row | Binder | GLP1R EC50 human
1 | B1 | 0.081 nM
2 | B2 | 2.07 nM
3 | B3 | 0.5 nM
4 | B4 | 0.587 nM
5 | B5 | 0.47 nM
6 | B6 | 1.22 nM
7 | B7 | 0.23 nM
8 | B8 | 0.866 nM
9 | B9 | 0.61 nM
10 | B10 | 0.1 nM

Each binder was assayed against human Glucagon receptor (GCGR) (human, UniProt P47871 26-477) (assay: cell-based or functional assay).
human Glucagon receptor (GCGR), sequence (P47871 26-477): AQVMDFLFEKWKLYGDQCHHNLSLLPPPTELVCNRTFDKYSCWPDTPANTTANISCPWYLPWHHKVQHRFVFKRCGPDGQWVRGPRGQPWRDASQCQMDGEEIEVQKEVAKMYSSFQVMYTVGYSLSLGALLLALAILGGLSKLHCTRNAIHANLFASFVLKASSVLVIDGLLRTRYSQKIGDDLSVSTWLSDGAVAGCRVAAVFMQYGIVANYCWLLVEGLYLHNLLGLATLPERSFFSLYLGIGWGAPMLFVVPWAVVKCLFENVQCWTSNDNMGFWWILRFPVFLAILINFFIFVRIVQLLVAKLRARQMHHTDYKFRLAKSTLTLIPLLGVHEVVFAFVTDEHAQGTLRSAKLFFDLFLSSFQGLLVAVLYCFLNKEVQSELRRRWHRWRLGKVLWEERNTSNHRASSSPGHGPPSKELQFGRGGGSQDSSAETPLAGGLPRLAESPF

Row | Binder | GCGR EC50 human
11 | B1 | 0.133 nM
12 | B2 | 19.8 nM
13 | B3 | 1.14 nM
14 | B4 | 0.228 nM
15 | B5 | 1.09 nM
16 | B6 | 1.25 nM
17 | B7 | 0.21 nM
18 | B8 | 0.595 nM
19 | B9 | 0.74 nM
20 | B10 | 0.18 nM
